The record followed here is patent US9803013B2, “Biological materials and uses thereof” (BioInvent International AB, priority 2005, dated 2017).

One assay has as its system human target tumor cells. Put plainly: ADCC with human effector NK cells. It counts as cell-based. As for the experimental part: NK cells were isolated from purified PBMCs using positive or negative NK cell-isolation kits (Miltenyi Biotec). Target cells were harvested and incubated in medium with or without the respective antibodies (2 μg/mL) for 60 min on ice before. NK cells were washed, diluted in ADCC medium and dispensed together with the respective antibody-coated target cells at varying effector/target cell ratios. All experiments were performed in triplicate. After incubation, TO-PRO-3 dye and counting beads (Invitrogen) were added and cells were analyzed for membrane permeabilization using flow cytometry.
Buffy coats from human donors (ordered through Blodcentralen, Lund) were used to isolate peripheral blood mononuclear cells (PBMCs), and subsequently natural killer (NK) cells. Briefly, peripheral blood components were separated using Ficoll-Paque PLUS (Amersham Biosciences, Sweden) in Leucosep tubes (Greiner Bio-One). […] The purity of the obtained NK cell fractions was >75% as determined by flow cytometry after staining with α-CD56 antibodies (BD Biosciences). […] After incubation, TO-PRO-3 dye and counting beads (Invitrogen) were added and cells were analyzed for membrane permeabilization using flow cytometry.

The test system of the next assay is RPMI-8226 myeloma tumors. The experiment in a line: Established RPMI-8226 tumors in SCID mice with macrophage or NK cell depletion. It counts as in vivo, mouse. The text has this: Fc-FcγR-interactions, in addition to enhancing antibody induced negative signalling and tumor PCD (Wilson et al., 2011), may involve both innate and adaptive arms of cellular immunity (Alduaij and Illidge, 2011; Park et al., 2010). Different approaches to assess the role of NK cells and macrophages were used—two principal cell types capable of conferring FcγR dependent antitumor effects—for BI-505 therapeutic activity; Firstly, the relative abundance of these cell types in tumor tissue harvested from BI-505 or control antibody treated mice were examined. […] In contrast, very few intratumoral NK cells could be detected (CD49b^+ CD31^− cells). […] To verify this macrophages or NK cells were depleted, using clodronate liposomes and anti-asialo antibodies respectively, from SCID mice bearing established RPMI-8226 myeloma tumors and examined the effect on BI-505 anti-myeloma activity. A period of three weeks of macrophage and NK cell depletion was chosen as read out since this was the longest time-period where neither treatment affected animal well-being. […] Tumors of macrophage depleted BI-505 treated mice had doubled in size compared with tumors from animals receiving BI-505 treatment alone (VBI-505=95±39 mm^3, VBI-505+clodro=189±94 mm^3, p<0.001), but were similarly sized compared to tumors from control antibody treated mice (Vctrl IgG=198±90 mm^3, p>0.05). NK cell depletion, in contrast, had little or no effect on BI-505 antitumor activity. […]
Treatment with antibodies by intraperitoneal injection started either 1 day after cell inoculation (prophylactic model) or when tumors reached approximately 100 mm^3 (established model). […] Macrophage and NK cell depletion was assessed upon termination of tumor bearing mice exposed to effector cell depleting agents (see above), spleens were removed and splenocytes isolated by mincing through a cell strainer (70 μm nylon mesh, BD Falcon 352350), erythrocytes were removed by lysis according to manufacturer (BD Pharm Lyse 555899, BD Biosciences). […]

B1: B11: fully human IgG1 antibody specific for ICAM-1; VH and VL sequences of FIG. 10 (SEQ ID NOs. 6 and 8) (antibody, listed as Homo sapiens, V domains shown)
VH: EVQLLESGGGLVQPGGSLRLSCAASGFTFSNAWMSWVRQAPGKGLEWVAFIWYDGSNKYYADSVKGRFTISRDNSKNTLYLQMNSLRAEDTAVYYCARYSGWYFDYWGQGTLVTVSS
VL: QSVLTQPPSASGTPGQRVTISCTGSSSNIGAGYDVHWYQQLPGTAPKLLIYDNNNRPSGVPDRFSGSKSGTSASLAISGLRSEDEADYYCQSYDSSLSAWLFGGGTKLTVLG
On to B1, for which, in the assay on human target tumor cells, the “ADCC” value is recorded as “conferred cytotoxicity in an Fc-dependent manner”. Further, the tumor volume with RPMI-8226 myeloma tumors (BI-505 treatment alone, three weeks) is listed as 95±39 mm^3; in the assay on RPMI-8226 myeloma tumors (NK cell depleted (anti-asialo) BI-505 treated mice) it was 130±53 mm^3; in the assay on RPMI-8226 myeloma tumors (macrophage depleted (clodronate liposomes) BI-505 treated mice), 189±94 mm^3.
